Measurements published in publication PMC3510444 (Molecular Cell, 2012).
Where no end group is shown, it is not given here.

Target: T1, LC3A, purified, for fluorescence anisotropy (human, UniProt Q9H492 1-121)
T1 construct: LC3A, human ATG8 ortholog; Construct limits and whether the tag was removed may stand in the Supplemental Experimental Procedures; source: E. coli (pETM30 vectors for biochemical experiments), purified
Experiment: fluorescence polarisation; fluorescence anisotropy, equilibrium; purified ATG8 orthologs serially diluted and mixed with equal volumes of 100 nM FITC-labeled NDP52 peptides; PheraStar plate reader
Conditions: both partners purified

| Binder | Kd [µM] |
| --- | --- |
| ENEEDWLVVTTQGE (also: FITC label (end not given here), NDP52, human, CLIR region, 14-mer, Ile133 replaced with Trp; also called CLIR^I133W) [FITC-labeled NDP52 CLIR peptide (aa 128-141), I133W] | 0.29 |
| ENEEDILVVTTQGE (also: FITC label (end not given here), NDP52, human, CLIR region, 14-mer; also called CLIR^WT) [FITC-labeled NDP52 CLIR peptide (aa 128-141), wild type] | 15.1 |
